According to PMC4801511:

Substrate: Cc1cc(=O)oc2c(F)c(OP(=O)(O)O)c(F)cc12
Experiment: DiFMUP fluorescence phosphatase assay, Michaelis-Menten fit
Format: biochemical, Homo sapiens
Conditions: 20 mM tris-acetate pH 6.0, 150 mM NaCl, BSA 0.1 mg/ml

Protein	Km [µM]	kcat/Km [M⁻¹ s⁻¹]
RPAP2_32–274 (Homo sapiens) (protein) LKQEDASKRKAELEAAVRKKIEFERKALHIVEQLLEENITEEFLMECGRFITPAHYSDVVDERSIVKLCGYPLCQKKLGIVPKQKYKISTKTNKVYDITERKSFCSNFCYQASKFFEAQIPKTPVWVREEERHPDFQLLKEEQSGHSGEEVQLCSKAIKTSDIDNPSHFEKQYESSSSSTHSDSSSDNEQDFVSSILPGNRPNSTNIRPQLHQKSIMKKKAGHKANSKHKDKEQTVVDVTEQL	30.95 ± 1.75	833000
RPAP2_32–345 (Homo sapiens) (protein) LKQEDASKRKAELEAAVRKKIEFERKALHIVEQLLEENITEEFLMECGRFITPAHYSDVVDERSIVKLCGYPLCQKKLGIVPKQKYKISTKTNKVYDITERKSFCSNFCYQASKFFEAQIPKTPVWVREEERHPDFQLLKEEQSGHSGEEVQLCSKAIKTSDIDNPSHFEKQYESSSSSTHSDSSSDNEQDFVSSILPGNRPNSTNIRPQLHQKSIMKKKAGHKANSKHKDKEQTVVDVTEQLGDCKLDSQEKDATCELPLQKVNTQSSSNSTLPERLKASENSESEYSRSEITLVGISKKSAEHFKRKFAKSN	34.20 ± 0.84	333000
